Experimental data reported in article PMC13544220, “Glycemic and bodyweight effects of GIPR coding variation reflect differences in surface expression and intrinsic functional impairment” (Science Advances, 2026).

Assays:
Assay type in all cases: cell-based, human
[1] = tested on: wild-type and variant SNAP-GIPR; experiment: Surface SNAP-GIPR expression (SNAP-tag labelling) in AD293 cells; details: for AD293 Surface: Fig S3E, mean; for Surface SNAP-GIPR expression: sheet Fig 1C;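 for all read-outs here: scaled to the experimental average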
Protocol: (§1) Twenty-four hours before the experiment, AD293 or INS-1 cells were reverse transfected with GIPR variant or wild-type plasmids using Lipofectamine 2000 in 96-well, clear-bottom, black microplates precoated with poly-D-lysine. All variants were tested in parallel on each occasion to control for transfection efficiency differences between experiments. Cells were then labeled using the cell-impermeant probe SNAP-Surface Alexa Fluor 647 (500 nM, New England Biolabs, USA) for 10 min at room temperature to label only surface GIPR. […] Several fields of view (FOVs) were acquired within each well using a 20X, 0.75–numerical aperture (NA) air objective. Surface GIPR fluorescence was quantified after flat-field correction using BaSiC ([72]) and segmenting using Phantast ([73]), which generates a mask based on the phase contrast images to demarcate cell versus noncell. Wide-field imaging of the surface-specific labeling achieved by SNAP-Surface probes means that surface expression can be established from whole-cell fluorescence, after subtracting nonspecific fluorescence from a separate well containing nontransfected cells processed in parallel from the same experiment. Data were normalized by dividing by the average specific signal across each experiment, or by the wild-type value, as indicated in the figure legends.

[2] = tested on: wild-type and variant SNAP-GIPR; experiment: Surface SNAP-GIPR expression (SNAP-tag labelling) in INS-1 cells; details: Fig 4G; Mean
Protocol: as §1

[3] = tested on: wild-type and variant SNAP-GIPR; experiment: Single-concentration GIP cAMP response by HTRF in AD293 cells; details: Fig S3F, HTRF, mean;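 note: ratio to experiment-wide average response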
Protocol: (§2) All variants were tested in parallel on each occasion to control for transfection efficiency differences between experiments.

[4] = tested on: wild-type and variant SNAP-GIPR; experiment: Single-concentration GIP cAMP response by HTRF in INS-1 cells; details: Fig S3E, mean
Protocol: as §2

[5] = tested on: wild-type and variant SNAP-GIPR; experiment: cADDis cAMP imaging in AD293 cells, ensemble, expression-matched and per decile; details: Fig S3F, cADDis, mean
Protocol: AD293 cells were reverse transfected with the GIPR variant or wild-type plasmids using Lipofectamine 2000 and cotransduced with the cADDis Green Up BacMam (10 μl per well, Montana Molecular, USA), in 96-well, poly-D-lysine–coated microplates. All variants were tested in parallel on each occasion to control for transfection efficiency differences between experiments. After 24 hours, cells were labeled using 500 nM SNAP-Surface Alexa Fluor 647 for 10 min at room temperature. Cells were washed three times and then imaged in KRBH buffer containing 6 mM glucose and 0.1% BSA. Imaging was performed at 37°C by wide-field microscopy using the same microscope as in the “Assessment of surface GIPR expression by SNAP-tag labeling in cell lines” section, with 9 FOVs for both cADDis and SNAP-Surface fluorescence acquired from each well using a 10X, 0.45 NA air objective. […] Flat-field correction was performed using BaSiC ([72]), drift correction was performed using SIFT, and a maximum intensity projection of the cADDis channel was used to segment individual cells. cAMP responses were determined by quantifying the cADDis fluorescence intensity for each cell at each time point. Nonviable cells or noncell objects were excluded according to criteria for allowable cell IBMX/FSK responses. […] The cADDis mask was then used to quantify the SNAP-Surface signal from each cell. Wild-type SNAP-Surface readings were split into deciles, and these deciles were subsequently used to categorize variant-transfected cells to match against the wild type. After trimming the top and bottom deciles, the mean was taken of each decile mean for surface expression level or cAMP response, which achieved matched expression levels by effectively applying an inverse weighting to counteract differences in cell number in each decile for different variants. Ensemble expression levels or cAMP responses were calculated without regard to deciles. Variant cADDis responses were also analyzed within their own surface expression deciles.

[6] = tested on: wild-type and variant SNAP-GIPR; experiment: Constitutive and agonist-mediated internalization, reversible SNAP-tag labelling, AD293 cells; parameters: key to Internalisation, Vehicle / Internalisation, +GIP / Internalisation, GIP-only: % internalization: residual fluorescence after Mesna vs pre-Mesna; Surface expression: unit not given here; details: Mean
Protocol: (§3) Twenty-four hours before the experiment, AD293 or INS-1 cells were reverse transfected with GIPR variant or wild-type plasmids using Lipofectamine 2000 in 96-well, clear-bottom, black microplates precoated with poly-D-lysine. All variants were tested in parallel on each occasion to control for transfection efficiency differences between experiments. […] Media were then removed, cells washed with PBS and then placed in TNE buffer (pH 8.6) for imaging. […] After 10 min, the well was reimaged again to detect remaining fluorescence from internalized GIPR. Images were analyzed as in the “Assessment of surface GIPR expression by SNAP-tag labeling in cell lines” section, with the residual specific fluorescence after Mesna treatment expressed relative to the pre-Mesna value to establish percentage internalization.

[7] = tested on: wild-type and variant SNAP-GIPR; experiment: Constitutive and agonist-mediated internalization, reversible SNAP-tag labelling, INS-1 cells; parameters: key to Internalisation, GIP-only / Internalisation, Vehicle / Internalisation, +GIP: % internalization: residual fluorescence after Mesna vs pre-Mesna; details: Mean
Protocol: as §3

B1: R131S (protein, UniProt P48546 22-466, looked up, variant R131S)
Gastric inhibitory …: RAETGSKGQTAGELYQRWERYRRECQETLAAAEPPSGLACNGSFDMYVCWDYAAPNATARASCPWYLPWHHHVAAGFVLRQCGSDGQWGLWRDHTQCENPEKNEAFLDQSLILERLQVMYTVGYSLSLATLLLALLILSLFRRLHCTRNYIHINLFTSFMLRAAAILSRDRLLPRPGPYLGDQALALWNQALAACRTAQIVTQYCVGANYTWLLVEGVYLHSLLVLVGGSEEGHFRYYLLLGWGAPALFVIPWVIVRYLYENTQCWERNEVKAIWWIIRTPILMTILINFLIFIRILGILLSKLRTRQMRCRDYRLRLARSTLTLVPLLGVHEVVFAPVTEEQARGALRFAKLGFEIFLSSFQGFLVSVLYCFINKEVQSEIRRGWHHCRLRRSLGEEQRQLPERAFRALPSGSGPGEVPTSRGLSSGTLPGPGNEASRELESYC
AD293 Surface ([1]; column repeated, paired with cAMP 100 nM): 1.362 | AD293 Surface ([1]; paired with cAMP 100 pM): 1.362 | Surface SNAP-GIPR expression ([1]; replicate 1): 0.7106 | Surface SNAP-GIPR expression ([1]; replicate 2): 2.058 | Surface SNAP-GIPR expression ([1]; replicate 3): 0.7777 | Surface SNAP-GIPR expression ([1]; replicate 4): 1.042 | Surface SNAP-GIPR expression ([1]; replicate 5): 1.12 | Surface SNAP-GIPR expression ([1]; replicate 6): 1.654 | Surface SNAP-GIPR expression ([1]; replicate 7): 1.227 | Surface SNAP-GIPR expression ([1]; replicate 8): 1.559 | Surface SNAP-GIPR expression ([1]; replicate 9): 1.551 | Surface SNAP-GIPR expression ([1]; replicate 10): 1.359 | Surface SNAP-GIPR expression ([1]; replicate 11): 1.194 | Surface SNAP-GIPR expression ([1]; replicate 12): 1.256 | Surface SNAP-GIPR expression ([1]; replicate 13): 1.318 | Surface SNAP-GIPR expression ([1]; replicate 14): 0.9106 | Surface SNAP-GIPR expression ([1]; replicate 15): 1.304 | Surface SNAP-GIPR expression ([1]; replicate 16): 1.372 | Surface SNAP-GIPR expression ([1]; replicate 17): 1.574 | Surface SNAP-GIPR expression ([1]; replicate 18): 1.448 | Surface SNAP-GIPR expression ([1]; replicate 19): 1.382 | Surface SNAP-GIPR expression ([1]; replicate 20): 1.357 | Surface SNAP-GIPR expression ([1]; replicate 21): 1.273 | Surface SNAP-GIPR expression ([1]; replicate 22): 1.627 | Surface SNAP-GIPR expression ([1]; replicate 23): 1.424 | Surface SNAP-GIPR expression ([1]; replicate 24): 1.463 | Surface SNAP-GIPR expression ([1]; replicate 25): 1.446 | Surface SNAP-GIPR expression ([1]; replicate 26): 1.405 | Surface SNAP-GIPR expression ([1]; replicate 27): 1.475 | Surface SNAP-GIPR expression ([1]; replicate 28): 1.453 | Surface SNAP-GIPR expression ([1]; replicate 29): 1.54 | Surface SNAP-GIPR expression ([1]; replicate 30): 1.363 | Surface SNAP-GIPR expression ([1]; replicate 31): 1.317 | Surface SNAP-GIPR expression ([1]; replicate 32): 1.55 | Surface SNAP-GIPR expression ([1]; replicate 33): 1.587 | Surface SNAP-GIPR expression ([1]; replicate 34): 1.477 | Surface SNAP-GIPR expression ([1]; replicate 35): 1.359 | Surface SNAP-GIPR expression ([1]; replicate 36): 1.207 | Surface SNAP-GIPR expression ([1]; replicate 37): 1.251 | Surface SNAP-GIPR expression ([1]; replicate 38): 1.505 | Surface SNAP-GIPR expression ([1]; replicate 39): 1.263 | Surface SNAP-GIPR expression ([1]; replicate 40): 1.363 | Surface SNAP-GIPR expression ([1]; replicate 41): 1.33 | Surface expression [2]: 1.447 | AD293 100 pM HTRF ([3]; AD293, 100 pM): 0.4337 | AD293 100 nM HTRF ([3]; AD293, 100 nM): 1.306 | INS-1 cAMP (100 nM) [4]: 1.548 | AD293 100 pM cADDis ([5]; AD293, 100 pM): 25.6916 | AD293 100 nM cADDis ([5]; AD293, 100 nM): 36.03 | +GIP internalisation (100 nM) ([6]; Fig 4E, GIP 100 nM): 0.7235 | GIP-specific internalisation (100 nM) ([6]; Fig 4E, GIP 100 nM): 0.2116 | Constitutive internalisation (100 nM) ([6]; Fig 4E): 0.5118 | Surface expression ([6]; Fig 4E): 1.308 | Internalisation, +GIP ([6]; Fig S4C, AD293): 55.4494 | Internalisation, GIP-only ([6]; Fig S4C, AD293): 16.1484 | Internalisation, Vehicle ([6]; Fig S4C, AD293): 39.3009 | +GIP internalisation (100 nM) ([7]; Fig 4G, GIP 100 nM): 0.7402 | GIP-specific internalisation (100 nM) ([7]; Fig 4G, GIP 100 nM): 0.1769 | Constitutive internalisation (100 nM) ([7]; Fig 4G): 0.5633 | Internalisation, +GIP ([7]; Fig S4C, INS-1): 45.9917 | Internalisation, GIP-only ([7]; Fig S4C, INS-1): 10.9733 | Internalisation, Vehicle ([7]; Fig S4C, INS-1): 35.0183
